In article PMC8274477 (Frontiers in Cell and Developmental Biology, 2021):

B1: NUDT16L1 (natural protein, human, UniProt Q9BRJ7 1-211, looked up)
chain: MSTAAVPELKQISRVEAMRLGPGWSHSCHAMLYAANPGQLFGRIPMRFSVLMQMRFDGLLGFPGGFVDRRFWSLEDGLNRVLGLGLGCLRLTEADYLSSHLTEGPHRVVAHLYARQLTLEQLHAVEISAVHSRDHGLEVLGLVRVPLYTQKDRVGGFPNFLSNAFVSTAKCQLLFALKVLNMMPEEKLVEALAAATEKQKKALEKLLPASS
notes: NUDT16L1; protein on the human proteome microarray; source: spotted on the HuProt human proteome microarray
B2: MIF (natural protein, human, UniProt P14174 1-115, looked up)
chain: MPMFIVNTNVPRASVPDGFLSELTQQLAQATGKPPQYIAVHVVPDQLMAFGGSSEPCALCSLHSIGKIGGAQNRSYSKLLCGLLAERLRISPDRVYINYYDMNAANVGWNNSTFA
notes: MIF; protein on the human proteome microarray; source: spotted on the HuProt human proteome microarray
B3: NTPCR (natural protein, human, UniProt Q9BSD7 1-190, looked up)
chain: MARHVFLTGPPGVGKTTLIHKASEVLKSSGVPVDGFYTEEVRQGGRRIGFDVVTLSGTRGPLSRVGLEPPPGKRECRVGQYVVDLTSFEQLALPVLRNADCSSGPGQRVCVIDEIGKMELFSQLFIQAVRQTLSTPGTIILGTIPVPKGKPLALVEEIRNRKDVKVFNVTKENRNHLLPDIVTCVQSSRK
notes: NTPCR; protein on the human proteome microarray; source: spotted on the HuProt human proteome microarray
B4: NABP1 (natural protein, human, UniProt Q96AH0 1-204, looked up)
chain: MNRVNDPLIFIRDIKPGLKNLNVVFIVLEIGRVTKTKDGHEVRSCKVADKTGSITISVWDEIGGLIQPGDIIRLTRGYASMWKGCLTLYTGRGGELQKIGEFCMVYSEVPNFSEPNPDYRGQQNKGAQSEQKNNSMNSNMGTGTFGPVGNGVHTGPESREHQFSHAGRSNGRGLINPQLQGTASNQTVMTTISNGRDPRRAFKR
notes: NABP1; protein on the human proteome microarray; source: spotted on the HuProt human proteome microarray
B5: KLHDC9 (natural protein, human, UniProt Q8NEP7 1-349, looked up)
chain: MAVAVPPGRAAGSGWAWRPVARDALLARAFHSCTELRGRFYLVGGLLAGGAREPSSDTVVFDPARGQAVRLGARGSPPRSHHDAAPVDGRWLCVVGGWDGSRRLATVTALDTERGVWEAWTGTPGDCPPAGLSSHTCTRISDRELQVAGREGGIHTQRRYGSIYTLRLDPSARTYCYKQEGCHTASRSGHCAALLQTPGPHPGHQLLLFGGCNLAEPEVAGHWSHGKIKEEPPVAPHLMEQLARLVSSGQGSQKGPHGLRHHSCSVVGPFAVLFGGETLTRARDTICNDLYIYDTRTSPPLWFHFPCADRGMKRMGHRTCLWNDQLYLVGGFGEDGRTASPQVCILDFI
notes: KLHDC9; protein on the human proteome microarray; source: spotted on the HuProt human proteome microarray
B6: LOR (natural protein, human, UniProt P23490 1-312, looked up)
chain: MSYQKKQPTPQPPVDCVKTSGGGGGGGGSGGGGCGFFGGGGSGGGSSGSGCGYSGGGGYSGGGCGGGSSGGGGGGGIGGCGGGSGGSVKYSGGGGSSGGGSGCFSSGGGGSGCFSSGGGGSSGGGSGCFSSGGGGSSGGGSGCFSSGGGGFSGQAVQCQSYGGVSSGGSSGGGSGCFSSGGGGGSVCGYSGGGSGCGGGSSGGSGSGYVSSQQVTQTSCAPQPSYGGGSSGGGGSGGSGCFSSGGGGGSSGCGGGSSGIGSGCIISGGGSVCGGGSSGGGGGGSSVGGSGSGKGVPICHQTQQKQAPTWPSK
notes: LOR; protein on the human proteome microarray; source: spotted on the HuProt human proteome microarray
B7: OVOL2 (natural protein, human, UniProt Q9BRP0 1-275, looked up)
chain: MPKVFLVKRRSLGVSVRSWDELPDEKRADTYIPVGLGRLLHDPPEDCRSDGGSSSGSGSSSAGEPGGAESSSSPHAPESETPEPGDAEGPDGHLATKQRPVARSKIKFTTGTCSDSVVHSCDLCGKGFRLQRMLNRHLKCHNQVKRHLCTFCGKGFNDTFDLKRHVRTHTGIRPYKCNVCNKAFTQRCSLESHLKKIHGVQQQYAYKQRRDKLYVCEDCGYTGPTQEDLYLHVNSAHPGSSFLKKTSKKLAALLQGKLTSAHQENTSLSEEEERK
notes: OVOL2; protein on the human proteome microarray; source: spotted on the HuProt human proteome microarray
B8: MSI2 (natural protein)
chain: not shown
notes: MSI2; protein on the human proteome microarray; source: spotted on the HuProt human proteome microarray
B9: PYCR2 (natural protein, human, UniProt Q96C36 1-320, looked up)
chain: MSVGFIGAGQLAYALARGFTAAGILSAHKIIASSPEMNLPTVSALRKMGVNLTRSNKETVKHSDVLFLAVKPHIIPFILDEIGADVQARHIVVSCAAGVTISSVEKKLMAFQPAPKVIRCMTNTPVVVQEGATVYATGTHALVEDGQLLEQLMSSVGFCTEVEEDLIDAVTGLSGSGPAYAFMALDALADGGVKMGLPRRLAIQLGAQALLGAAKMLLDSEQHPCQLKDNVCSPGGATIHALHFLESGGFRSLLINAVEASCIRTRELQSMADQEKISPAALKKTLLDRVKLESPTVSTLTPSSPGKLLTRSLALGGKKD
notes: PYCR2; protein on the human proteome microarray; source: spotted on the HuProt human proteome microarray
B10: NAT6 (natural protein, human, UniProt Q93015 1-286, looked up)
chain: MELILSTSPAELTLDPACQPKLPLDSTCQPEMTFNPGPTELTLDPEHQPEETPAPSLAELTLEPVHRRPELLDACADLINDQWPRSRTSRLHSLGQSSDAFPLCLMLLSPHPTLEAAPVVVGHARLSRVLNQPQSLLVETVVVARALRGRGFGRRLMEGLEVFARARGFRKLHLTTHDQVHFYTHLGYQLGEPVQGLVFTSRRLPATLLNAFPTAPSPRPPRKAPNLTAQAAPRGPKGPPLPPPPPLPECLTISPPVPSGPPSKSLLETQYQNVRGRPIFWMEKDI
notes: NAT6; protein on the human proteome microarray; source: spotted on the HuProt human proteome microarray
B11: MPST (natural protein, human, UniProt P25325 1-297, looked up)
chain: MASPQLCRALVSAQWVAEALRAPRAGQPLQLLDASWYLPKLGRDARREFEERHIPGAAFFDIDQCSDRTSPYDHMLPGAEHFAEYAGRLGVGAATHVVIYDASDQGLYSAPRVWWMFRAFGHHAVSLLDGGLRHWLRQNLPLSSGKSQPAPAEFRAQLDPAFIKTYEDIKENLESRRFQVVDSRATGRFRGTEPEPRDGIEPGHIPGTVNIPFTDFLSQEGLEKSPEEIRHLFQEKKVDLSKPLVATCGSGVTACHVALGAYLCGKPDVPIYDGSWVEWYMRARPEDVISEGRGKTH
notes: MPST; protein on the human proteome microarray; source: spotted on the HuProt human proteome microarray
B12: NUDT6 (natural protein, human, UniProt P53370 1-316, looked up)
chain: MRQPLSWGRWRAMLARTYGPGPSAGYRWASGAQGYVRNPPVGACDLQGELDRFGGISVRLARLDALDRLDAAAFQKGLQAAVQQWRSEGRTAVWLHIPILQSRFIAPAASLGFCFHHAESDSSTLTLWLREGPSRLPGYASHQVGVAGAVFDESTRKILVVQDRNKLKNMWKFPGGLSEPEEDIGDTAVREVFEETGIKSEFRSVLSIRQQHTNPGAFGKSDMYIICRLKPYSFTINFCQEECLRCEWMDLNDLAKTENTTPITSRVARLLLYGYREGFDKIDLTVEELPAVYTGLFYKLYHKELPENYKTMKGID
notes: NUDT6; protein on the human proteome microarray; source: spotted on the HuProt human proteome microarray
B13: PDCD6 (natural protein, human, UniProt O75340 1-191, looked up)
chain: MAAYSYRPGPGAGPGPAAGAALPDQSFLWNVFQRVDKDRSGVISDTELQQALSNGTWTPFNPVTVRSIISMFDRENKAGVNFSEFTGVWKYITDWQNVFRTYDRDNSGMIDKNELKQALSGFGYRLSDQFHDILIRKFDRQGRGQIAFDDFIQGCIVLQRLTDIFRRYDTDQDGWIQVSYEQYLSMVFSIV
notes: PDCD6; protein on the human proteome microarray; source: spotted on the HuProt human proteome microarray
B14: ODAM (natural protein, human, UniProt A1E959 16-279, looked up)
chain: APLIPQRLMSASNSNELLLNLNNGQLLPLQLQGPLNSWIPPFSGILQQQQQAQIPGLSQFSLSALDQFAGLLPNQIPLTGEASFAQGAQAGQVDPLQLQTPPQTQPGPSHVMPYVFSFKMPQEQGQMFQYYPVYMVLPWEQPQQTVPRSPQQTRQQQYEEQIPFYAQFGYIPQLAEPAISGGQQQLAFDPQLGTAPEIAVMSTGEEIPYLQKEAINFRHDSAGVFMPSTSPKPSTTNVFTSAVDQTITPELPEEKDKTDSLREP
notes: ODAM; protein on the human proteome microarray; source: spotted on the HuProt human proteome microarray
B15: PYCRL (natural protein, human, UniProt Q53H96 1-274, looked up)
chain: MAAAEPSPRRVGFVGAGRMAGAIAQGLIRAGKVEAQHILASAPTDRNLCHFQALGCRTTHSNQEVLQSCLLVIFATKPHVLPAVLAEVAPVVTTEHILVSVAAGVSLSTLEELLPPNTRVLRVLPNLPCVVQEGAIVMARGRHVGSSETKLLQHLLEACGRCEEVPEAYVDIHTGLSGSGVAFVCAFSEALAEGAVKMGMPSSLAHRIAAQTLLGTAKMLLHEGQHPAQLRSDVCTPGGTTIYGLHALEQGGLRAATMSAVEAATCRAKELSRK
notes: PYCRL; protein on the human proteome microarray; source: spotted on the HuProt human proteome microarray
B16: MAGEB1 (natural protein, human, UniProt P43366 1-347, looked up)
chain: MPRGQKSKLRAREKRRKAREETQGLKVAHATAAEKEECPSSSPVLGDTPTSSPAAGIPQKPQGAPPTTTAAAAVSCTESDEGAKCQGEENASFSQATTSTESSVKDPVAWEAGMLMHFILRKYKMREPIMKADMLKVVDEKYKDHFTEILNGASRRLELVFGLDLKEDNPSGHTYTLVSKLNLTNDGNLSNDWDFPRNGLLMPLLGVIFLKGNSATEEEIWKFMNVLGAYDGEEHLIYGEPRKFITQDLVQEKYLKYEQVPNSDPPRYQFLWGPRAYAETTKMKVLEFLAKMNGATPRDFPSHYEEALRDEEERAQVRSSVRARRRTTATTFRARSRAPFSRSSHPM
notes: MAGEB1; protein on the human proteome microarray; source: spotted on the HuProt human proteome microarray
B17: QKI (natural protein, human, UniProt Q96PU8 1-341, looked up)
chain: MVGEMETKEKPKPTPDYLMQLMNDKKLMSSLPNFCGIFNHLERLLDEEISRVRKDMYNDTLNGSTEKRSAELPDAVGPIVQLQEKLYVPVKEYPDFNFVGRILGPRGLTAKQLEAETGCKIMVRGKGSMRDKKKEEQNRGKPNWEHLNEDLHVLITVEDAQNRAEIKLKRAVEEVKKLLVPAAEGEDSLKKMQLMELAILNGTYRDANIKSPALAFSLAATAQAAPRIITGPAPVLPPAALRTPTPAGPTIMPLIRQIQTAVMPNGTPHPTAAIVPPGPEAGLIYTPYEYPYTLAPATSILEYPIEPSGVLGAVATKVRRHDMRVHPYQRIVTADRAATGN
notes: QKI; protein on the human proteome microarray; source: spotted on the HuProt human proteome microarray
B18: NECAP2 (natural protein, human, UniProt Q9NVZ3 1-263, looked up)
chain: MEESGYESVLCVKPDVHVYRIPPRATNRGYRAAEWQLDQPSWSGRLRITAKGQMAYIKLEDRTSGELFAQAPVDQFPGTAVESVTDSSRYFVIRIEDGNGRRAFIGIGFGDRGDAFDFNVALQDHFKWVKQQCEFAKQAQNPDQGPKLDLGFKEGQTIKLNIANMKKKEGAAGNPRVRPASTGGLSLLPPPPGGKTSTLIPPPGEQLAVGGSLVQPAVAPSSGGAPVPWPQPNPATADIWGDFTKSTGSTSSQTQPGTGWVQF
notes: NECAP2; protein on the human proteome microarray; source: spotted on the HuProt human proteome microarray
B19: NME2 (natural protein, human, UniProt P22392 1-152, looked up)
chain: MANLERTFIAIKPDGVQRGLVGEIIKRFEQKGFRLVAMKFLRASEEHLKQHYIDLKDRPFFPGLVKYMNSGPVVAMVWEGLNVVKTGRVMLGETNPADSKPGTIRGDFCIQVGRNIIHGSDSVKSAEKEISLWFKPEELVDYKSCAHDWVYE
notes: NME2; protein on the human proteome microarray; source: spotted on the HuProt human proteome microarray
B20: POP7 (natural protein, human, UniProt O75817 1-140, looked up)
chain: MAENREPRGAVEAELDPVEYTLRKRLPSRLPRRPNDIYVNMKTDFKAQLARCQKLLDGGARGQNACSEIYIHGLGLAINRAINIALQLQAGSFGSLQVAANTSTVELVDELEPETDTREPLTRIRNNSAIHIRVFRVTPK
notes: POP7; protein on the human proteome microarray; source: spotted on the HuProt human proteome microarray

target: T1, OTULIN (OTU deubiquitinase with linear linkage specificity, FAM105B), His-tagged, biotin-labelled (human, UniProt Q96BN8 1-352, biotin (label; sites not stated)); test: peptide or protein array; HuProt human proteome microarray; 5 ug/5 ml biotin-labelled LUBAC or OTULIN in solution, 1 h at room temperature; Cy5-streptavidin, scanned at 635 nm; BSA as negative control; hits: Z-score >= 3 and I_(Mean_Ratio) >= 1.4; conditions: both partners purified
T1 construct: OTULIN (FAM105B), cDNA in pET28a; also called HIS-OTULIN; source: E. coli BL21 (DE3), purified (His-tag Purification Resin), labelled with biotin; not shown: His6, N-terminal, kept

Binding result, binds:
B1
B2
B3
B4
B5
B6
B7
B8
B9
B10
B11
B12
B13
B14
B15
B16
B17
B18
B19
B20
